For the experiment, the target named is SPE-7 IgE (DNP-specific murine IgE/λ, highly cytokinergic) (murine).

In article PMC4402612 one finds IC50 of recombinant SPE-7 IgE Fab (30–600 nM) for inhibition of LAD-2 cell TNF-α release evoked by 30 nM SPE-7 IgE; pair blocked: 'free' SPE-7 IgE with receptor-bound SPE-7 IgE and IC50 of recombinant SPE-7 IgE Fab (30–600 nM) for inhibition of LAD-2 mast cell degranulation induced by 30 nM SPE-7 IgE; pair blocked: 'free' SPE-7 IgE with receptor-bound SPE-7 IgE data, which are given here for one substance.

In the case of recombinant SPE-7 IgE Fab, the IC50 of recombinant SPE-7 IgE Fab (30–600 nM) for inhibition of LAD-2 cell TNF-α release evoked by 30 nM SPE-7 IgE; pair blocked: 'free' SPE-7 IgE with receptor-bound SPE-7 IgE came out at 170 nM and the IC50 of recombinant SPE-7 IgE Fab (30–600 nM) for inhibition of LAD-2 mast cell degranulation induced by 30 nM SPE-7 IgE; pair blocked: 'free' SPE-7 IgE with receptor-bound SPE-7 IgE was 190 nM.
